Assay results reported in the supplement of paper PMC9112550, “Optimization of the antimicrobial peptide Bac7 by deep mutational scanning” (BMC Biology, 2022).

Tested on: Escherichia coli TOP10
Test: shrunken log2 fold change of peptide-encoding DNA abundance (4.5 h post-induction vs induction); higher = less antimicrobial activity (less host growth inhibition)
Conditions: time post-induction: 4.5 h; library: site-saturation at positions 5, 18, 19, 20
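Further: peptides expressed intracellularly from a pBAD plasmid library in pooled LB shake-flask culture, induced with 0.3% L-arabinose, DNA abundance read by NGS, three biological replicates, DESeq2 with apeglm shrinkage.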

Sequence	shrunken log2 fold change
RRIRFRPPRLPRPRPRPFGNPRP	0.0348
RRIRARPPRLPRPRPRPCIIPRP	-0.076
RRIRKRPPRLPRPRPRPAKVPRP	0.0797
RRIRHRPPRLPRPRPRPLYRPRP	-0.343
RRIRWRPPRLPRPRPRPTGEPRP	0.306
RRIRERPPRLPRPRPRPTDNPRP	-0.841
RRIRARPPRLPRPRPRPWHSPRP	0.0528
RRIRRRPPRLPRPRPRPKQVPRP	0.351
RRIRGRPPRLPRPRPRPVGVPRP	1.08
RRIRYRPPRLPRPRPRPGGCPRP	0.0169
RRIRHRPPRLPRPRPRPQKQPRP	0.219
RRIRERPPRLPRPRPRPPPEPRP	0.574
RRIRRRPPRLPRPRPRPFKYPRP	-0.252
RRIRSRPPRLPRPRPRPFLVPRP	-0.361
RRIRIRPPRLPRPRPRPWCAPRP	-0.377
RRIRERPPRLPRPRPRPDSGPRP	-0.533
RRIRWRPPRLPRPRPRPGLCPRP	0.412
RRIRARPPRLPRPRPRPYYSPRP	-0.173
RRIRVRPPRLPRPRPRPYWSPRP	0.000469
RRIRPRPPRLPRPRPRPGWQPRP	0.0481
RRIRPRPPRLPRPRPRPKQAPRP	-0.0162
RRIRDRPPRLPRPRPRPRIWPRP	0.53
RRIRIRPPRLPRPRPRPSQHPRP	-0.71
RRIRGRPPRLPRPRPRPQYEPRP	0.0238
RRIRVRPPRLPRPRPRPRGYPRP	-0.068

Sequence	shrunken log2 fold change
RRIRKRPPRLPRPRPRPITRPRP	0.132
RRIRHRPPRLPRPRPRPWKEPRP	-0.0223
RRIRERPPRLPRPRPRPVMCPRP	0.0654
RRIRQRPPRLPRPRPRPYWAPRP	-0.355
RRIRRRPPRLPRPRPRPAHGPRP	0.279
RRIRHRPPRLPRPRPRPWGLPRP	-0.00494
RRIRMRPPRLPRPRPRPKNPPRP	0.145
RRIRQRPPRLPRPRPRPLKCPRP	-0.139
RRIRSRPPRLPRPRPRPNKEPRP	0.0328
RRIRCRPPRLPRPRPRPKGGPRP	0.094
RRIRVRPPRLPRPRPRPTDEPRP	-0.148
RRIRFRPPRLPRPRPRPCAKPRP	-0.0688
RRIRQRPPRLPRPRPRPAMPPRP	0.306
RRIRCRPPRLPRPRPRPCVPPRP	-0.49
RRIRPRPPRLPRPRPRPHIEPRP	-0.646
RRIRDRPPRLPRPRPRPCTNPRP	-0.0463
RRIRRRPPRLPRPRPRPYLNPRP	-1.13
RRIRFRPPRLPRPRPRPDGYPRP	0.028
RRIRQRPPRLPRPRPRPCIFPRP	-0.142
RRIRNRPPRLPRPRPRPEFQPRP	-0.00325
RRIRHRPPRLPRPRPRPANQPRP	-0.0712
RRIRWRPPRLPRPRPRPKPFPRP	0.323
RRIRERPPRLPRPRPRPIGMPRP	0.115
RRIRDRPPRLPRPRPRPLDDPRP	0.459
RRIRLRPPRLPRPRPRPMAFPRP	-0.127

Sequence	shrunken log2 fold change
RRIRNRPPRLPRPRPRPGICPRP	0.122
RRIRARPPRLPRPRPRPRYGPRP	-0.0744
RRIRWRPPRLPRPRPRPVIMPRP	-0.273
RRIRDRPPRLPRPRPRPHPHPRP	-0.0722
RRIRGRPPRLPRPRPRPDYEPRP	0.19
RRIRPRPPRLPRPRPRPLHHPRP	-0.0808
RRIRTRPPRLPRPRPRPPPGPRP	0.668
RRIRMRPPRLPRPRPRPLFKPRP	-0.0689
RRIRFRPPRLPRPRPRPKMDPRP	-0.0752
RRIRGRPPRLPRPRPRPSYDPRP	-0.0196
RRIRARPPRLPRPRPRPLCEPRP	0.879
RRIRQRPPRLPRPRPRPYSVPRP	-0.00968
RRIRYRPPRLPRPRPRPMIVPRP	-0.209
RRIRSRPPRLPRPRPRPSTTPRP	-0.433
RRIRYRPPRLPRPRPRPAATPRP	0.208
RRIRVRPPRLPRPRPRPNLDPRP	-0.0165
RRIRCRPPRLPRPRPRPMWEPRP	-0.0554
RRIRSRPPRLPRPRPRPRCVPRP	0.116
RRIRFRPPRLPRPRPRPRENPRP	0.449
RRIRVRPPRLPRPRPRPWFIPRP	-0.329
RRIRLRPPRLPRPRPRPQLAPRP	0.384
RRIRSRPPRLPRPRPRPSTEPRP	-0.0608
RRIRRRPPRLPRPRPRPMFVPRP	-0.0498
RRIRFRPPRLPRPRPRPIKRPRP	0.988
RRIRWRPPRLPRPRPRPNFRPRP	0.298

Sequence	shrunken log2 fold change
RRIRSRPPRLPRPRPRPANLPRP	-0.0937
RRIRIRPPRLPRPRPRPLYFPRP	-0.961
RRIRQRPPRLPRPRPRPFSDPRP	-0.00196
RRIRNRPPRLPRPRPRPTKTPRP	0.0911
RRIRHRPPRLPRPRPRPQIHPRP	-0.46
RRIRSRPPRLPRPRPRPQNAPRP	-0.427
RRIRRRPPRLPRPRPRPQERPRP	-0.0784
RRIRKRPPRLPRPRPRPQWRPRP	0.309
RRIRMRPPRLPRPRPRPEFDPRP	2.44
RRIRNRPPRLPRPRPRPNYRPRP	-0.264
RRIRMRPPRLPRPRPRPSDMPRP	0.0637
RRIRFRPPRLPRPRPRPPNHPRP	-0.0407
RRIRVRPPRLPRPRPRPANGPRP	0.136
RRIRYRPPRLPRPRPRPKRPPRP	0.45
RRIRERPPRLPRPRPRPEGIPRP	0.0236
RRIRNRPPRLPRPRPRPQYSPRP	-0.232
RRIRHRPPRLPRPRPRPHPDPRP	-0.206
RRIRKRPPRLPRPRPRPYYQPRP	-0.194
RRIRPRPPRLPRPRPRPSTFPRP	0.147
RRIRFRPPRLPRPRPRPKLDPRP	0.0288
RRIRERPPRLPRPRPRPANNPRP	-0.598
RRIRKRPPRLPRPRPRPLLPPRP	0.227
RRIRWRPPRLPRPRPRPEYMPRP	-0.0342
RRIRDRPPRLPRPRPRPIDMPRP	-0.185
RRIRSRPPRLPRPRPRPVVLPRP	0.124

Sequence	shrunken log2 fold change
RRIRTRPPRLPRPRPRPHEHPRP	-0.0451
RRIRYRPPRLPRPRPRPNKDPRP	-1.01
RRIRKRPPRLPRPRPRPPTRPRP	1.49
RRIRMRPPRLPRPRPRPDKSPRP	0.283
RRIRGRPPRLPRPRPRPMWMPRP	0.118
RRIRRRPPRLPRPRPRPATTPRP	0.092
RRIRSRPPRLPRPRPRPLAFPRP	-0.0837
RRIRDRPPRLPRPRPRPLTMPRP	0.188
RRIRCRPPRLPRPRPRPNYNPRP	-0.986
RRIRKRPPRLPRPRPRPCRQPRP	-0.166
RRIRVRPPRLPRPRPRPHHMPRP	-0.26
RRIRIRPPRLPRPRPRPHTFPRP	-1.53
RRIRTRPPRLPRPRPRPHRPPRP	0.0943
RRIRYRPPRLPRPRPRPCLYPRP	-0.783
RRIRCRPPRLPRPRPRPEMCPRP	0.0156
RRIRWRPPRLPRPRPRPETSPRP	0.7
RRIRARPPRLPRPRPRPSYPPRP	-0.312
RRIRERPPRLPRPRPRPCGLPRP	-0.0273
RRIRCRPPRLPRPRPRPKVHPRP	-0.0287
RRIRIRPPRLPRPRPRPNSAPRP	-0.234
RRIRKRPPRLPRPRPRPHFMPRP	-0.171
RRIRERPPRLPRPRPRPSCQPRP	-0.47
RRIRERPPRLPRPRPRPKFWPRP	0.375
RRIRQRPPRLPRPRPRPSAYPRP	-0.247
RRIRGRPPRLPRPRPRPDYRPRP	0.127
